Results taken from the supplement of paper PMC12455559.

Assay: purified protein yield per well (BCA); higher = higher soluble expression
Outline: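 Candidate enzymes were made in 2 mL autoinduction cultures of E. coli C41(DE3) with 100 µg/mL kanamycin, at 37 °C for 2 h and then 18 °C for 40 h, and purified with Ni-charged magnetic beads and SUMO protease cleavage. The Pierce Rapid Gold BCA kit gave purified protein yield per well. Values lower than 25 ug (0.1 mg/mL) are below the detection threshold.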

| Sequence | purified protein yield per well |
| --- | --- |
| STPVHHAAASYTSTAAHHHAPFAVRTTVVPKTAVTTFGGGVIYTPQDTGKPVLGAVVITPGFTDTNANEKEMAELVASQGFVAFAIDTLTTDDLPDLRATQMLAAADYLTGQSAVRSQVSKDDVGLIGYSFGGGGAMQAAQSRPSIKAAIGLMPFDFPPATDPDAMYPAYPHMTTPTLVITGQKDDVADPKDFGKPAYDSIPAGTPKQYLELTGLGHAAGQHVPVATIRTAVTAFLKRYLDGNSAYAKYICPAPKVGGPISASLSSCPKG [TEP069] | 25.8 µg |
| TPEAPAARAAENPYERGPDPTESSIEAPRGSYSVSERSVSSLSVRGFGGGTIYYPTSTADGTFGAVAISPGFTARQSSMAWYGERLASQGFVVFTIDTNTTMDQPASRGDQLLAALDYLTDDSAVRSRIDSNRLAVMGHSMGGGGSLEAAKDRPSLKAAIPLTPWNTDKSWPEVRVPTFIVGADGDSIASVRSHAEPFYESLPSSTDRAYMELRNATHFAPNSADTEIAKYSISWLKRFVDEDTRYEQFLCPIPSSDLQIAEFRGNCPH [TEP075] | < 25 µg |
| TQSGPYQVKRYREKDGLRNGPRYRGATVYYPTDARGLLASIVIVPGYISPERSIRAWGPFYASHGIVAMTIGTNRPQDAPAARRRALLDAITSLKLENHRANSPLKGRLAVTRIAVSGWSMGGGGALEAATRAPQLKAVVALCPWNPYQTFSHRVPVLFLAGQRDRLAPVSDNALRHYEKTPASTPKLLFEVRNEGHWVANTPQGGNGAIGRLALS [TEP155] | < 25 µg |
| VANPYQRGPAPTEASVTAKLGPFAIASKKVGAFSHPGIREGTVYYPTDTSQGTFGAIAVAPGFVSPEALVSWYGPRLASQGFVVMTLEITTGFDLPEARAAQLLSALDFMKKDNTIKNRIDPNRLAVMGWSMGGGGTLRAAQQSASLKAAIPLAPWDLGMDWSNVRVPTMIIGGDNDFVASPGFHAEPFYTQLADEKAYLELENAGHFTFTSDNNTIAKYAISWMKRWVDEDTRYTQFLCPPPPAPSPTIQKYRQTCPY [DP046] | < 25 µg |
| VASPYQRGPDPTVASIEASRGPFAIAQTTIAASSVRGFRGGTVYYPTSTAEGTFGAVAISPGYTATQSSVAWLGPRLASQGFVVVTIDTLSRYDQPASRGTQLLAALDHLTTASSVRTRIDRNRLAVMGHSMGGGGSLSAANTRPTLQAAIPLTGWHTVKNWSGVRVPTLVVGAENDSIAPVTSHSEPFYTSLPSTLDKAYLELNAAGHSAPTSSNVTVAKYSISWLKRFVDDDTRYEQFLCPAPRGTAIQEYRDTCPHS [DP083] | < 25 µg |
| VEIGPAPTSTLLNGDGPFAVSTDSVSSLVTGFGGGTIYYPTTSGQYAAVAVCPGFTGTSSSISWFARRLATHGFVTIAMNTNTIYDYPSSRATQLAAALRYLLNSSSSTIRARIRTADRAVAGHSMGGGGTLIASANDSTLRAGIPLTPWNTYTSFSSVRVPQMIFGADGDTIAPYASHARPFYNSLSYPEKAYALLNGATHFTPNSTDQRIGRYGVAFAKRFVDGDTRYTPFLCGAEHTAYATSSRFDTYLSTCPY [TEP032] | < 25 µg |
| VEIGPAPTSTSLNSDGSFAVSSASVSSSACGSGCAGGTVYYPNTAGSYGVIAVCPGFTNTSSAISWFARRMATHGFVTIAMNTNSRYDFPASRATQLRAVLNYLVNSSSSTIRSRIRSADRGVSGYSMGGGGTLLASRDDSTLKTGVPMAPYNSGTISGVNVPQMIIGGSNDSIAPVSSMARPFYNNIPSTVKKALAVLNGASHLTFTSYDERAARYGVAFAKRFADGDTRYTPFLCGAEHTAYATSSRFTEYSSNCPY [ESM020] | < 25 µg |
| VENGPAPSLASIQADGPYAVSTQTVSGSGFGGGTVYSPNTAGKYAVVAVCPGFTATQSSIAAISRRLATHGFVVVTINTTSVYDFPSSRANQLLAALRTVTALATGPVAGKMDTTRQGVAGWSMGGGGAMLAAGMTPGLKGGVAFAPWSQSNNVSRSAVPMAYLAGTADTVAPAGSHASVFYNATPATTKKLLGVITGADHNFPKTASQPASYTQVAWMKRFLDGDTRYAQFLKGDTRFTTFRSTGPF [ESM107] | < 25 µg |
| VENGPAPTFSSVQAEGPFAVSTQTVRGSGFGGGTVYSPNTAGKYAVVAVCPGFTATQSSIALISRRLATHGFVVVTISTNSVYDYPASRANQLLAALRTVTALTTGPVAGKMDISRQGVAGWSMGGGGAMLAAGMTPGLKAGVAFAPWSLTNNVGSSSVPMAYLAGTADTVAPASSHSTVFYNAMPATTNKLIGVIQGANHYFPGTASQPASYTQVAWMKRFLDGDTRYSQFLNGDSRFATFRSTGPF [ESM102] | < 25 µg |
| VENGPAPTLAAIQKDGPYAVTAQAIKGSGFGSGTIYVPNAAGQYALVAVCPGFVSPESSITAISKRLATHGFVVVTIATNTLLDFPSSRASQILAALKAAAGTTTGAVAGKIDVSRQVASGWSMGGGGTLEAAASTPGLVAAVAYAPWNTSSTKYKTITVPSLILGGTADVIAPVAQHSQPFYNAIPATTPKMLAVIQGASHFFPNSAGEPQSYTNISWVKRFADGDTRYGTFLNTKDAAFSTVQSTGPF [ESM089] | < 25 µg |
| VENGPAPTLAALKADGPYAITSQAVPGNGFGAGTVYVPTAAGKYALVAICPGFVSAQSTMTDMAKRLATHGFVVVAISTNTLLDFPPSRASQLLAALKATASLTSGPVVGKIDTSRQAVSGWSMGGGGTLEAAGSTPGLMAAVAFAPWDTSTTKMKVDKVPAAIIGGSSDVIAPVSSHSQPFYNAIPSTTPKLLAVISGASHFFPTTASEPASYTNISWMKRFADGDTRYSQFLNGNDAALSSFTSNGPF [ESM092] | < 25 µg |
| VENGPAPTLASVQADGPYAVSTQSVSGTGFGGGTVYSPNTAGKYAVVAVCPGFTATQSSIAAISRRLATHGFVVVTINTKSTYDFPPSRANQILAALRTVTALTTGPVAGKMDISRQGVAGWSMGGGGAMLAAGMTPGLKGGVAFAPWAQSSNVSSSAVPMSYLAGSADGVAPPSMSTSFYNATPGTTRKMLGVIRGADHNFPKTASQPASYTQVAWMKRFLDSDTRYSQFLNGDSRFSTFRSTGPF [ESM088] | < 25 µg |
| VENGPAPTVSSVRADAGSYSVSKTSYADNVTPGFGAATVYAPSNTTGQKFGVVSFAPGWTENQSAVDWIARRTASFGFVTIVFDVNNTFFDFPAARAPQLIAALNFVTGTSNQRNLADASREAVVGHSMGGGATLDAARANPSLKATVGLAPWNPGISYSDVTVPSLEIGAQNDFIAGVSNNARYFYNSLPGSTPKAYTEMKSFGHLQTNYPSAQVGAATVSWLKRYVDGDTRYAPFICGAHTGVQNSELSAYASNC [ESM168] | < 25 µg |
| VENGPVPTLADLKKDGPYAVTSQKVAGSGFGSGTIYSPNTAGKYALVAVCPGFVSAESSITDISRRLATHGFVVITIGTKTLLDFPSSRATQLLAALKTATTTTTGPVVGKIDTARQVVSGWSMGGGGTLEAAGITPGLKAAVAYAPWHSTTTKIKTSTVPSIIFGATGDVVAPVASHSQKFYDVLPTSTKKQLAVLQGSNHFFPNSAIEPVSYSNISWVKRFADGDTRYSQFLSVADPAWSKVQSNGPF [ESM166] | < 25 µg |
| VPAPPAVERGPAPTPASVTAAVGPHAVITAAVRRADVAGFGGGTLLAPADAAGGPYGVVAVAPGFREGAATLAWLGPRLASRGFVVLLVDTLDPDEFPTARAAELLAAIDWVVADSPVRDRADPARAAVLGHSMGGGAALEAALARPGLRAAIPMAPWDPAADFAGVRVPTLVLAAEDDTIAPPAEHAERFYASLTAPARAYALLPGRDHDFSNAPDDVTAGLVLSWLARFVDGDTRYTRLLCRGTLSAAVASQQDTCPAP [TEP074] | < 25 µg |
| VQIGPAPTSAALNKDGSFSVSSSSVSMLSARGFGSGTIYYPSTSGQYGVIAVCPGFTGTSSSISWFARRLASHGFVTIAMNTTTTLDQPASRATQLAAALKYVLNSSSSTVRSRIRAADRGVAGHSMGGGGTLIASQSDSTLRVGIPMTPWNLSTNFSSVKVPQMIFGADGDTIAPYASHARPFYNSLSKAPKAYGLLKSATHFTPNATDQRIGRYGVAFAKRFVDGDTRYSPFLCGSEHNSYATSSKFATYLSNCPY [ESM148] | < 25 µg |
| VQIGPAPTSAALNKDGTFSVSSTSVSSLSARGFGGGTIYYPTTAGQYGVIAVCPGYTGTSSSISWFARRLATHGFVTIAMNTTTTLDQPDSRATQLAAALKCVLSNSTVKSRIRSTDRGVAGHSMGGGGTLIASQSDSSLRVGIPMTPWNLSTNFSAVKVPQMIFGADGDTIAPYASHARPFYNSINKTQKAYGLLKSATHFTPNSTDQRIGRYGVAFAKRFVDGDTRYSAFLCGAEHSSYATSSKFATYLSNCPY [ESM154] | < 25 µg |
| VQIGPNPTKASLEASSGPFTVGKFTISRPSGYAAGTVYYPTNAGAKVGVISIVPGFVSYQSSVAWWGPRLASHGFVVVTIDTNTTVDQPDSRSRQQLAALDQVVALGNNSSSPLYNKIDGTRTGVMGWSMGGGGSLISAKNRPSIKAAAPQAPWASLTSFSSLTVPTLIFSCQSDIVAPVATHANSFYNEMSRNPKQLLEKTLGDHFCMNSANPTVGLKGVAWMKRFIDGDTRYTTFACSNPNAFGFSDFRTARCS [ESM111] | < 25 µg |
| VQNGPAPTLAALKADGPYAITSQAVAGNGFGAGTIYTPTAAGKYALVAICPGFVSAQSTMAGLAKRLATHGFVVVAISTNTLLDFPSSRATQLLAALKTVSALNTGAVAGKVDTTRQAVSGWSMGGGGTLEAAGATPGLVAAVAFAPWDTSTTKMKVNKVPAAIIGGSSDAVAPVASHSQKFYD [ESM063] | < 25 µg |
| VQNGPNPTLDAIKADGPYAITSQAVAGNGFGAGTIYMPTAAGKYALVAICPGFVSAQSTMAGMAKRLATHGFVVVAISTNTLFDFPSSRATQLLAALKTVSALNTGAVVGKIDTTRQAVSGWSMGGGGTLEAAGATPGLVAAVAFAPWDTSTTKMKVNKVPAAIIGGSSDVIAPVASHSQKFYDAIPATTPKLLAVINGADHFFPTKASEPASYTNISWMKRFADGDTRYSSFLNGNDAALSSFSSNGPF [ESM056] | < 25 µg |
| VQNGPTPTLADLKKDGPYAVTSQTVAGNGFGGGTVYSPNTAGKYALVAVCPGFVSAQSSMTEMGRRLATHGFVVVTIATNTPFDFPSSRATQLLAALKTVAALNTGAVAGKVDTSRQVVSGWSMGGGGTLEAAGITPGLVAGVAFAPWHTSTAKMTSLTVPVAIIGGTSDTIAPVSGHSQKFYDAIPKTTKKMLGVITGADHFFPTKASEPTSYSNISWVKRFADGDTRYSPFLTGQDAAWASFVSTGPF [ESM118] | < 25 µg |
| VQSESPGKKYTSGPYGYTTTSLTGYSAGATIYIPRTGTPPYSGIVFMQPYTGTQAMDAAWGPFFASHGIIYVNCDSMTTLDTVDSRATQQMNAVSILKSSSKVKGKLDTSRVGVMGWSMGGGASWINSSKSGVKTAMTLAGHNLTAVSTASKGYSTRCPTAIFSGSLDTTYLGGLGQSEGVYAAIPRSVSKLHYKVATAGHMVWGGPTTASVNVGAIGLAFQKTYLDGDTRWKAYITRPADAAIWTTNLR [TEP005] | < 25 µg |
| WLTSAASPVRARVDANRLGVGGHSMGGGGAIEAASEMPSLKASIGFEPWNGIGSWPGVRVPTMIQGAQNDNIAPVAQHSEPFYNSMTNAPEKAYAEFTGASHFFSGQAGPATTRLSVSWYKRFLDNDTRYDQFLCPGPRSPEVVEYRNTCPLTTPGGGGGTTTTTGPGTTTTTRPTTTTTAPPAQCQWWEWWCWLGWG [TEP046] | < 25 µg |
